Among the data in WO2008074868A1 (dated 2008) are binding result and fold difference in off rate (pH 5 against pH 7) values, retold here.

The target of test [1] is T1, human plgR overexpressed in MDCK cells (human, UniProt P01833 19-764).
T1 construct: whole, on cells; also called hpIgR; human polymeric immunoglobulin receptor
The test is described as follows: immunofluorescence on MDCK cells overexpressing human plgR, 3 uM Nanobody at 4C.

Test [2] has as its target T2, ectodomain of human plgR (R&D Systems Cat # 2717-PG) (human, UniProt P01833 19-638).
T2 construct: extracellular domain; Immobilized at 5 ug/ml on Maxisorp plates; also called plgR ectodomain; pIgR
Kind of test: competition ELISA, dilution series of purified Nanobody against IgA on immobilized plgR ectodomain. In general terms: An ELISA detects its analyte on a solid surface through an enzyme-linked reagent.

Test [3] addresses T3, human serum albumin (human, UniProt P02768 25-609).
T3 construct: also called HSA
The test is described as follows: SPR (Biacore T100), periplasmic extracts over immobilized human serum albumin. On the technique in general: In SPR one partner is held on a chip, and binding of the other changes the refractive index at the surface.

The target of test [4] is T3, human serum albumin. Kind of test: SPR (Biacore T100) over immobilized human serum albumin, pH 7, pH 6 and pH 5.
Test [5] concerns the target T1, human plgR overexpressed in MDCK cells. The test is described as follows: immunoprecipitation from cell lysates with His-tagged Nanobody and talon beads, blot with a-hSC.
The target of test [6] is T3, human serum albumin. The test is described as follows: SPR (Biacore T100), periplasmic extracts over immobilized human serum albumin, pH 7 and pH 5.

T2 sequence (P01833 19-638): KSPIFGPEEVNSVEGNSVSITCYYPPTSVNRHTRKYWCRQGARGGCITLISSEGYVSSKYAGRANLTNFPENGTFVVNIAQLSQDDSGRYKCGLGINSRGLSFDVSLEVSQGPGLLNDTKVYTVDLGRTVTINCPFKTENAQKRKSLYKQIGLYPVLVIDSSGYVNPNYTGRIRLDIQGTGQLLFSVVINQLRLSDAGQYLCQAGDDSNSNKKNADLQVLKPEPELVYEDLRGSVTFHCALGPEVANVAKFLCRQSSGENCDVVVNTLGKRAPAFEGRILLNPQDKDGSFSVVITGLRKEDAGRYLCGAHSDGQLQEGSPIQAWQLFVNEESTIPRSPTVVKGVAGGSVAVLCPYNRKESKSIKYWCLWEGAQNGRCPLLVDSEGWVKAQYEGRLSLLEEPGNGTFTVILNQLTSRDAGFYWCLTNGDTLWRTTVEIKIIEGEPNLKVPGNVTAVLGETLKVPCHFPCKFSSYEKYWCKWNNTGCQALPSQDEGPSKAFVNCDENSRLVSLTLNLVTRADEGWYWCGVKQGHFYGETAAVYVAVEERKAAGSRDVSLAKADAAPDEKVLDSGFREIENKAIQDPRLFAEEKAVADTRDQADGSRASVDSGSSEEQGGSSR
T1 sequence (P01833 19-764): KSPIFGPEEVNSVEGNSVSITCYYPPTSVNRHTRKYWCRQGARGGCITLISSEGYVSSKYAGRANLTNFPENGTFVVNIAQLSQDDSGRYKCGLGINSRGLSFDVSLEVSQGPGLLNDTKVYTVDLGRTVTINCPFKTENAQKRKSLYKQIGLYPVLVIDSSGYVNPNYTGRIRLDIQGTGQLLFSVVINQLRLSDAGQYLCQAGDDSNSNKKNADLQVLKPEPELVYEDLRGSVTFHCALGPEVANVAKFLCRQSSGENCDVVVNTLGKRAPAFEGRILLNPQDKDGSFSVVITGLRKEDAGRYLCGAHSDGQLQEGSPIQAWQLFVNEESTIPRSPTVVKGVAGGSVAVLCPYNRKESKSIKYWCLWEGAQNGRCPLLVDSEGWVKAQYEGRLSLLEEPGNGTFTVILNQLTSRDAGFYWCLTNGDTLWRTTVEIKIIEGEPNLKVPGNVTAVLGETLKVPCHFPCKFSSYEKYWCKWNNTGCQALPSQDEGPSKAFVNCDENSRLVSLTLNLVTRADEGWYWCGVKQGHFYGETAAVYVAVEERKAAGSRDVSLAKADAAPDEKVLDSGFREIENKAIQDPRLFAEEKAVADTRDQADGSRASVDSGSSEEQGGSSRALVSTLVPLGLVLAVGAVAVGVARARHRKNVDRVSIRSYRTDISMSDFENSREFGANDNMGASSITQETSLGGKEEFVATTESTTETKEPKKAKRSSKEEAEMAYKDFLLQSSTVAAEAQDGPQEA

B1: 1D2 (VHH)
VHH: EVQLVESGGGLVQPGGSLRLSCAASGFTLDYYAIGWFRRAPGKEREGVSCTSSSDGSTYYADSVKGRFTISRDNAKNTVYLQMNSLKPEDTAVYYCATTFGDACTVVAGIPDQYDFGSWGQGTQVTVSS
B1: the binding result in test [1] and in test [2] was “binds” each time.

B2: 4D9 (VHH)
VHH: EVQLVESGGGLVQPGGSLRLSCAASGFTLDYYDIGWFRQAPGKEREGVSCTSSSDGSTYYADSVKGRFTISRDNAKNTVYLQMNSLKPEDTAVYYCATTFGDACTVVAGIPDQYDFGSWGQGTQVTVSS
notes: Purified Nanobody
In the case of B2, in test [2], the binding result was “binds”.

B3: 4A6 (VHH)
VHH: EVQLVESGGGLVQPGGSLRLSCAASPFTLDYYAIGWFRQAPGKEREGVSCSTSHGKTYHADSVKGRFTISRDNAKNTVYLQMNSLKPEDTAVYYCAAGACMGGSGYEADFGSWGQGTQVTVSS
notes: Tested as periplasmic extract; also called 4Aό
As to B3, the binding result with human serum albumin [3] is “binds”.

B4: 4B1 (VHH)
VHH: EVQLVESGGGLVQPGGSLRLSCVAAGFTLDYYAIGWFRQAPGKEREGVSCITSDGRTYYADSVKGRFTISRDMAKKMVYLQMNSLKPEDTAVYYCAAGACMGGSGYEADFGSWGQGTQVTVSS
notes: Tested as periplasmic extract; also called 4Bl
Consider B4, for which the binding result in the test with human serum albumin [4] is given as “binds”.

B5: 4B10 (VHH)
VHH: EVQLVESGGGLVQAGDSLRLSCAASGRTFSSYAMGWFRQAPGTERQFVARITGKGDSTDYADSVRGRFTISRDNAKNTVYLQMNSLKPEDTAVYYCAADAFNSLLQAGRAEYWGQGTQVTVSS
notes: Tested as periplasmic extract; also called 4B1Θ
On to B5, for which, in the test with human serum albumin [4], the binding result is “binds”.

B6: 4C8 (VHH)
VHH: EVQLVESGGGLVQAGDSLRLSCAASGRTYTPYVMGWFRRAPGKEREFVGAVSWSGTNTWYTDSVKGRFTISRDNAKNTVYLQMNSLKPEDTAVYYCAAGDGVGIYRYEHQYDYWGQGTQVTVSS
notes: Tested as periplasmic extract
Consider B6, for which the binding result with human serum albumin [3] was “binds”.

B7: 4C4 (VHH)
VHH: EVQLVESGGGLVQAGDSLRLSCAASGRPFMSYVMGWFRRAPGKEREFVGGINWGSGNTWYTDSVLGRFTISRDNAKNTVYLQMNSLKPEDTAVYYCATAAGVGYYRYERQYDYWGQGTQVTVSS
notes: Tested as periplasmic extract
Consider B7, for which the binding result in the test with human serum albumin [3] is “binds”.

B8: 4C5 (VHH)
VHH: EVQLVESGGGLVQAGDSLRLSCAASGRPFSAYVMGWFRRAPGKEREFVGGINWNSANTWYTDSVLGRFTISKDNAKNTVYLQMNSLKPEDTAVYYCAAAGGVGYYRYERQYDYWGQGTQVTVSS
notes: Tested as periplasmic extract; also called 4CS
As to B8, in the test with human serum albumin [3], the binding result is on record as “binds”.

B9: 1E7 (VHH)
VHH: EVQLVESGGGLVQAGGSLRLSCAASGRTFSNYVMGWFRQAPGKEREFVAAISWSGVTTYHYSADSVKGRFTTSRDNDRNTAHLQMNSLKPEDTAVYYCAARGRTGSDPRKGDDYDYWGQGTQVTVSS
With B9, the binding result in test [1] and in test [2] was “binds” in each case.

B10: 4B7 (VHH)
VHH: EVQLVESGGGLVQAGGSLRLSCAASGFTFDDYAIGWFRQAPGKEREGVSCISSRDGITYYADSVKGRFTISSDNAKNTVYLQMNSLKPEDTAVYYCAADLVGSFPCPVAAYDYWGQGTQVTVSS
As for B10, the binding result in test [5] is “binds”.

B11: 4C3 (VHH)
VHH: EVQLVESGGGLVQAGGSLRLSCAASGRTFSSYAMAWFRQAPGEEREFVATISVSGGYTYYADSVKGRFTISRDNAKNTVYLQMNTLKPEDTAVYYCAAGDSSSWLEHMYDYWGQGTQVTVSS
notes: Tested as periplasmic extract
In the case of B11, in the test with human serum albumin [3], the binding result is listed as “binds”.

B12: 1D7 (VHH)
VHH: EVQLVESGGGLVQSGGSLRLSCAASGRAFNYYAMGWFRQAPGKERELVAVINWSGGTTSYADSVKGRFTISRSNAKNTVYLQMSSLKPEDTAVYYCAADSIYRTSKDYNYWGQGTQVTVSS
On to B12, for which the binding result in test [5] and in test [2] was “binds” throughout.

B13: 4C9 (VHH)
VHH: EVQLVESGGGLVQAGDSLRLSCTASERPFSTYVMGWFRRAPGKEREFVGGITWSGINAWYTDSVLGRFTISSDNAKNTVYLQMNSLKPEDTAVYYCAAASGVGRYRYELQYDYWGQGTQVTVSS
notes: Tested as periplasmic extract
On to B13, for which, in the test with human serum albumin [3], the binding result is given as “binds”.

B14: 4B8 (VHH)
VHH: EVQLVESGGGLVQAGGSLRLSCAASGGTYSGNAMAWFRQAPGKEREFVAGIDWSSENTRYIDSVKGRFTISRDNAKNTMYLQMNSLKPEDTAVYYCAAGTSWGALASRLEAAYSSWGQGTQVTVSS
notes: Tested as periplasmic extract
For the molecule B14, the binding result in the test with human serum albumin [3] is listed as “binds”.

B15: 4B6 (VHH)
VHH: KVQLVESGGGLVQVGGSLRLSCVASGRTYGGNAMAWFRQAPGKEREFVAGIDWSSENTRYTDSVKGRFTISRDNAKNTMYLQMNSLKPEDTAVYYCAAGTSWGALASRLENAYSAWGQGTQVTVSS
notes: Tested as periplasmic extract
Consider B15, for which, in the test with human serum albumin [3], the binding result is “binds”.

B16: 4B5 (VHH)
VHH: EVQLVESGGGLVQAGDSLRLSCAASGRTYSRNAMAWFRQAPGKEREFVAGIDWSSENTRYIDSVKGRFTISRDNAKSTMYLQMNSLKPEDTAVYYCAAGTSWGALASRLEAAYSSWGQGTQVTVSS
notes: Tested as periplasmic extract
For the molecule B16, in the test with human serum albumin [3], the binding result is listed as “binds”.

B17: 4A9 (VHH)
VHH: EVQLVESGGGLVQAGGSLRLSCEASGFTLDYSGVGWFRQAPGKERELVSCISRGGDRAGYANSVKGRFTMSRDNAKNILYLQMNSLKPEDTAVYYCAATHSGSGCYDGAIDYWGKGTLVTVSS
In the case of B17, the fold difference in off rate (pH 5 against pH 7) in the test with human serum albumin [6] came out at 0.54 fold.
